Target: T1, mouse Sema 3A protein (mouse, UniProt O08665 21-772, limits assumed)
T1 construct: Produced from mouse Sema 3A protein expressing cells; also called Mouse Sema 3A antigen
T1 sequence (looked up): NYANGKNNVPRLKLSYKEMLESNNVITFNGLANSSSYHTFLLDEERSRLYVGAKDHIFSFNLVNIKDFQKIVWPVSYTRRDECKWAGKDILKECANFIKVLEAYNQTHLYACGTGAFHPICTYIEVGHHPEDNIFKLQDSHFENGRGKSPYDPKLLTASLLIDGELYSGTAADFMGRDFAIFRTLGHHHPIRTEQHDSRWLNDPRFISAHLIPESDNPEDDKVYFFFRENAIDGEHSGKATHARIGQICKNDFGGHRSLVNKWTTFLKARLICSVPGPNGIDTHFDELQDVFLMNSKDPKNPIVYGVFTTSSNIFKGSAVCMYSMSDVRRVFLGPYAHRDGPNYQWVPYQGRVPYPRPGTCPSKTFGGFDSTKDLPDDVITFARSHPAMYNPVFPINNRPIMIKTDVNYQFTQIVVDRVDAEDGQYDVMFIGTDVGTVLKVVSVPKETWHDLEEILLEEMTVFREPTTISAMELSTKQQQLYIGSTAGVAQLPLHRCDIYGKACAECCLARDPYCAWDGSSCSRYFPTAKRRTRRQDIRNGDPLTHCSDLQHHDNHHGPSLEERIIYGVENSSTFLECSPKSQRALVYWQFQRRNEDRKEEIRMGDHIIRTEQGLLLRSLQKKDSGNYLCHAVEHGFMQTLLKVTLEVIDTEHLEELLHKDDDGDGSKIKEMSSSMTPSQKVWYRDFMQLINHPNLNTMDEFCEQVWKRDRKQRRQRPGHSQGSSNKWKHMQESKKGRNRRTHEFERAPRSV
Test: competitive ELISA on plate-coated mouse Sema 3A; competitor biotin-labelled avian-mouse chimeric antibody (clone No. 4-2) at 60 ng/mL
Method: The obtained clone No. 4-2-derived avian-mouse chimeric antibody in Example 1, the obtained humanized antibodies in Example 2 (Humanized-1 and Humanized-2) and avian-human chimeric antibody were subjected to competitive ELISA to evaluate affinity to the antigen. CL18M (+) avian-mouse chimeric antibody, which served as a negative control, was also measured for affinity to the antigen. Particular measurement conditions were as follows.
Firstly, 2.5 μg/mL of antigen (mouse and human Sema 3A protein) was dispensed into a 384 Well MaxiSorp Plate (Nunc) and reacted overnight at 4° C. in order to coat the plate with the antigen. The next day, the plate was washed three times with 50 μL/well of washing solution (PBS containing 0.05% Tween 20), to which was added 25 μL/well of blocking solution (PBS containing 1% bovine serum albumin) and the mixture was reacted for 30 minutes. Each of humanized antibodies (Humanized-1 and Humanized-2), avian-human chimeric antibody and avian-mouse chimeric antibody was subjected to serial doubling dilution, to which was mixed anti-Sema 3A avian-mouse chimeric antibody labeled with biotin to the final concentration of 60 ng/mL, and the mixture was reacted with the antigen solid phase plate which was washed three times with 50 μL/well of washing solution for one hour. The plate was washed five times with 50 μL/well of washing solution, to which was added 20 μL/well of diluent in which streptavidin labeled with horseradish peroxidase (HRP) (Thermo Fisher Scientific K.K.) was diluted 10000 times with PBS buffer and the mixture was reacted for 30 minutes. The plate was washed five times with 50 μL/well of washing solution, to which was added 20 μL/well of TMB+(Dako) and the mixture was chromogenically reacted for 20 minutes. Subsequently, to the each well was added 20 μL, of 1M sulfuric acid to quench the reaction. The absorbance was measured at 450 nm using Infinite M1000 (Tecan Trading AG).

B1: Anti-Sema 3A avian-mouse chimeric antibody (clone No. 4-2-derived) (antibody, mouse IgG2a)
heavy: AVTLDESGGGLQTPGGALSLVCKASGFTFSSYPMGWVRQAPGKGLEWVAGIDDDGDSDTRYAPAVKGRATISRDNGQSTVRLQLNNLRAEDTGTYYCAKHTGIGANSAGSIDAWGHGTEVIVSSAKTTAPSVYPLAPVCGDTTGSSVTLGCLVKGYFPEPVTLTWNSGSLSSGVHTFPAVLQSDLYTLSSSVTVTSSTWPSQSITCNVAHPASSTKVDKKIEPRGPTIKPCPPCKCPAPNLLGGPSVFIFPPKIKDVLMISLSPIVTCVVVDVSEDDPDVQISWFVNNVEVHTAQTQTHREDYNSTLRVVSALPIQHQDWMSGKEFKCKVNNKDLPAPIERTISKPKGSVRAPQVYVLPPPEEEMTKKQVTLTCMVTDFMPEDIYVEWTNNGKTELNYKNTEPVLDSDGSYFMYSKLRVEKKNWVERNSYSCSVVHEGLHNHHTTKSFSRTPGK
light: ALTQPASVSANLGGTVKITCSGGGSYTGSYYYGWYQQKSPGSALVTMIYYNNKRPSDIPSRFSGSLSGSTNTLTITGVRADDEAVYFCGSADNSGDAFGAGTTLTVLGQPKSSPSVTLFPPSSEELETNKATLVCTITDFYPGVVTVDWKVDGTPVTQGMETTQPSKQSNNKYMASSYLTLTARAWERHSSYSCQVTHEGHTVEKSLSRADCS
notes: Avian variable regions of clone No. 4-2 with mouse IgG2a heavy and mouse lambda light constant regions; also called anti-Sema 3A avian-mouse chimeric antibody (IgG)
Binder B1 has an IC50 of 0.147 mg/L.
